{"source": "patent US7741541", "molecular_target": "barnase (ribonuclease from Bacillus amyloliquefaciens) (Bacillus amyloliquefaciens) (UniProt P00648)", "sequence (P00648 48-157 limits assumed)": "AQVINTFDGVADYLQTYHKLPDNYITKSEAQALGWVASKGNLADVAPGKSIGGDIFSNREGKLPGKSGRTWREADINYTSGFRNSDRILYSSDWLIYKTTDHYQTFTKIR", "assay": "cell-based or functional assay", "data": [{"substance": "barstar protein (product of the wild type and of the modified barstar gene of Bacillus amyloliquefaciens) (from UniProt P11540 2-90)", "values": [{"measurement": "Percent of restored (male fertile) plants after transformation of barnase line bn 3.6 with construct A, A9-bs(fm)::TA29-bs(wt)", "value": 89.8, "unit": "%"}, {"measurement": "Percent of restored (male fertile) plants after transformation of barnase line bn 3.6 with construct B, TA29-bs(wt)", "value": 65.6, "unit": "%"}, {"measurement": "Percent of restored (male fertile) plants after transformation of barnase line bn 3.6 with construct C, A9-bs(wt)", "value": 12.7, "unit": "%"}, {"measurement": "Percent of restored (male fertile) plants after transformation of barnase line bn 3.6 with construct D, A9-bs(fm)", "value": 10.8, "unit": "%"}]}]}
